# Experimental data from IntAct's records for PubMed 29892012.
# B1: Protein VAC14 homolog (Homo sapiens), Q08AM6 (parent)
# chain: MNPEKDFAPLTPNIVRALNDKLYEKRKVAALEIEKLVREFVAQNNTVQIKHVIQTLSQEFALSQHPHSRKGGLIGLAACSIALGKDSGLYLKELIEPVLTCFNDADSRLRYYACEALYNIVKVARGAVLPHFNVLFDGLSKLAADPDPNVKSGSELLDRLLKDIVTESNKFDLVSFIPLLRERIYSNNQYARQFIISWILVLESVPDINLLDYLPEILDGLFQILGDNGKEIRKMCEVVLGEFLKEIKKNPSSVKFAEMANILVIHCQTTDDLIQLTAMCWMREFIQLAGRVMLPYSSGILTAVLPCLAYDDRKKSIKEVANVCNQSLMKLVTPEDDELDELRPGQRQAEPTPDDALPKQEGTASGGPDGSCDSSFSSGISVFTAASTERAPVTLHLDGIVQVLNCHLSDTAIGMMTRIAVLKWLYHLYIKTPRKMFRHTDSLFPILLQTLSDESDEVILKDLEVLAEIASSPAGQTDDPGPLDGPDLQASHSELQVPTPGRAGLLNTSGTKGLECSPSTPTMNSYFYKFMINLLKRFSSERKLLEVRGPFIIRQLCLLLNAENIFHSMADILLREEDLKFASTMVHALNTILLTSTELFQLRNQLKDLKTLESQNLFCCLYRSWCHNPVTTVSLCFLTQNYRHAYDLIQKFGDLEVTVDFLAEVDKLVQLIECPIFTYLRLQLLDVKNNPYLIKALYGLLMLLPQSSAFQLLSHRLQCVPNPELLQTEDSLKAAPKSQKADSPSIDYAELLQHFEKVQNKHLEVRHQRSGRGDHLDRRVVL
# partner: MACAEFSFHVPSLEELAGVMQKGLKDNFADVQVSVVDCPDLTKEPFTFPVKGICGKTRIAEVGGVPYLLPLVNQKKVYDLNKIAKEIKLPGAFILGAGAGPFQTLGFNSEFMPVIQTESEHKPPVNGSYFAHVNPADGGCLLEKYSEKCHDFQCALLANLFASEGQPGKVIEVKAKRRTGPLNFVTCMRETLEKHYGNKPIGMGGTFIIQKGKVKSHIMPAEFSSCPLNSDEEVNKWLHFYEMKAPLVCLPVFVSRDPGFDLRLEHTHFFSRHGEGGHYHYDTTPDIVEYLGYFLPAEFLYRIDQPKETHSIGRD
# B2: Coiled-coil domain-containing protein 120 (Homo sapiens), Q96HB5-4 (parent)
# chain: MRREPRYQGQVGPDIHTDSERTLSSHQPRPLDSTKMEVKGQLISSPTFNAPAALFGEAAPQVKSERLRGLLDRQRTLQEALSLKLQELRKVCLQEAELTGQLPPECPLEPGERPQLVRRRPPTARAYPPPHPNQAHHSLCPAEELALEALEREVSVQQQIAAAARRLALAPDLSTEQRRRRRQVQADALRRLHELEEQLRDVRARLGLPVLPLPQPLPLSTGSVITTQGVCLGMRLAQLSQEDVVLHSESSSLSESGASHDNEEPHGCFSLAERPSPPKAWDQLRAVSGGSPERRTPWKPPPSDLYGDLKSRRNSVASPTSPTRSLPRSASSFEGRSVPATPVLTRGAGPQLCKPEGLHSRQWSGSQDSQMGFPRADPASDRASLFVARTRRSNSSEALLVDRAAGGGAGSPPAPLAPSASGPPVCKSSEVLYERPQPTPAFSSRTAGPPDPPRAARPSSAAPASRGAPRLPPVCGDFLLDYSLDRGLPRSGGGTGWGELPPAAEVPGPLSRRDGLLTMLPGPPPVYAADSNSPLLRTKDPHTRATRTKPCGLPPEAAEGPEVHPNPLLWMPPPTRIPSAGERSGHKNLALEGLRDWYIRNSGLAAGPQRRPVLPSVGPPHPPFLHARCYEVGQALYGAPSQAPLPHSRSFTAPPVSGRYYADFLYPPELSARLSDLTLEGEQSSSSDTQTPGTLV
# partner: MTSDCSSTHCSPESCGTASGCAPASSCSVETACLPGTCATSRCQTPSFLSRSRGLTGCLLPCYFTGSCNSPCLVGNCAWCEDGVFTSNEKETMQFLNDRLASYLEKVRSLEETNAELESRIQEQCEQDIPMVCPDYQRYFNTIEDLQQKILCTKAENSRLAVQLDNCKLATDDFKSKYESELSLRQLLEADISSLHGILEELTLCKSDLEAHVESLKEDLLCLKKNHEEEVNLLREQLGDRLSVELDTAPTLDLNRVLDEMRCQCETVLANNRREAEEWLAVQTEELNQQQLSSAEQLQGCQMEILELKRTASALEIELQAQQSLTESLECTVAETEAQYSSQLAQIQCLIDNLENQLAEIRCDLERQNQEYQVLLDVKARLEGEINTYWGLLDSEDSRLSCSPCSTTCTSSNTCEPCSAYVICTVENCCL
# B3: Zinc finger protein 64 (Homo sapiens), Q9NTW7 (parent)
# chain: MNASSEGESFAGSVQIPGGTTVLVELTPDIHICGICKQQFNNLDAFVAHKQSGCQLTGTSAAAPSTVQFVSEETVPATQTQTTTRTITSETQTITVSAPEFVFEHGYQTYLPTESNENQTATVISLPAKSRTKKPTTPPAQKRLNCCYPGCQFKTAYGMKDMERHLKIHTGDKPHKCEVCGKCFSRKDKLKTHMRCHTGVKPYKCKTCDYAAADSSSLNKHLRIHSDERPFKCQICPYASRNSSQLTVHLRSHTASELDDDVPKANCLSTESTDTPKAPVITLPSEAREQMATLGERTFNCCYPGCHFKTVHGMKDLDRHLRIHTGDKPHKCEFCDKCFSRKDNLTMHMRCHTSVKPHKCHLCDYAAVDSSSLKKHLRIHSDERPYKCQLCPYASRNSSQLTVHLRSHTGDTPFQCWLCSAKFKISSDLKRHMIVHSGEKPFKCEFCDVRCTMKANLKSHIRIKHTFKCLHCAFQGRDRADLLEHSRLHQADHPEKCPECSYSCSSAAALRVHSRVHCKDRPFKCDFCSFDTKRPSSLAKHVDKVHRDEAKTENRAPLGKEGLREGSSQHVAKIVTQRAFRCETCGASFVRDDSLRCHKKQHSDQSENKNSDLVTFPPESGASGQLSTLVSVGQLEAPLEPSQDL
# partner: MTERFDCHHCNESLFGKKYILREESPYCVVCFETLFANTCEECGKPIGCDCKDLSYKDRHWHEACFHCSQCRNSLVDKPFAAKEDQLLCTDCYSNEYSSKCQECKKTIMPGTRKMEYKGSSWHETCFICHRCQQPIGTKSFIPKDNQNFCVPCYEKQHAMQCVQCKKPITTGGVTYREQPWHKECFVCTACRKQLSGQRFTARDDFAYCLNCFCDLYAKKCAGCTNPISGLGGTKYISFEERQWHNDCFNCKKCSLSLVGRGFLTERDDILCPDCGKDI
# B4: Ribosome assembly protein METTL17, mitochondrial (Homo sapiens), Q9H7H0 (parent)
# chain: MAAALKCLLTLGRWCPGLGVAPQARALAALVPGVTQVDNKSGFLQKRPHRQHPGILKLPHVRLPQALANGAQLLLLGSAGPTMENQVQTLTSYLWSRHLPVEPEELQRRARHLEKKFLENPDLSQTEEKLRGAVLHALRKTTYHWQELSYTEGLSLVYMAARLDGGFAAVSRAFHEIRARNPAFQPQTLMDFGSGTGSVTWAAHSIWGQSLREYMCVDRSAAMLVLAEKLLKGGSESGEPYIPGVFFRQFLPVSPKVQFDVVVSAFSLSELPSKADRTEVVQTLWRKTGHFLVLVENGTKAGHSLLMDARDLVLKGKEKSPLDPRPGFVFAPCPHELPCPQLTNLACSFSQAYHPIPFSWNKKPKEEKFSMVILARGSPEEAHRWPRITQPVLKRPRHVHCHLCCPDGHMQHAVLTARRHGRDLYRCARVSSWGDLLPVLTPSAFPPSTAQDPSES
# partner: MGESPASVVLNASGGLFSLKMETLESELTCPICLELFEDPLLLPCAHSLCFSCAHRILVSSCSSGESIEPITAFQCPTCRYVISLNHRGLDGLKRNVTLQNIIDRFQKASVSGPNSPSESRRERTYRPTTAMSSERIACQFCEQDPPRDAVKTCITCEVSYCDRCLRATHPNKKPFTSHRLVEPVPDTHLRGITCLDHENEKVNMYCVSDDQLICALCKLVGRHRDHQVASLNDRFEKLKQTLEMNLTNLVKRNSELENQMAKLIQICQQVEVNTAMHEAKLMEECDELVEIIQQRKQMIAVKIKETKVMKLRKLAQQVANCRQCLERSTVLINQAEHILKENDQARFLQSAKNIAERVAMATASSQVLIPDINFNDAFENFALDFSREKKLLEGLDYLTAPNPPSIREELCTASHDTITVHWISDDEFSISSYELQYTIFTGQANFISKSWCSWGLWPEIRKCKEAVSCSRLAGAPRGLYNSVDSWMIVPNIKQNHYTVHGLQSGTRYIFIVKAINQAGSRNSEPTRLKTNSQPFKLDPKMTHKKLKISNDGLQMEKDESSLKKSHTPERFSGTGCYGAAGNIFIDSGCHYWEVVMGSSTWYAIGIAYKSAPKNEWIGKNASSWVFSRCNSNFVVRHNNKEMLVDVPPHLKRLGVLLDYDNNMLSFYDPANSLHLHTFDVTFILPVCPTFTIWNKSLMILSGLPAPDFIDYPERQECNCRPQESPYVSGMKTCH
# B5: Genetic suppressor element 1 (Homo sapiens), Q14687 (parent)
# chain: MKGMSHEPKSPSLGMLSTATRTTATVNPLTPSPLNGALVPSGSPATSSALSAQAAPSSSFAAALRKLAKQAEEPRGSSLSSESSPVSSPATNHSSPASTPKRVPMGPIIVPPGGHSVPSTPPVVTIAPTKTVNGVWRSESRQDAGSRSSSGGRERLIVEPPLPQEKAGGPAIPSHLLSTPYPFGLSPSSVVQDSRFPPLNLQRPVHHVVPPSTVTEDYLRSFRPYHTTDDLRMSSLPPLGLDPATAAAYYHPSYLAPHPFPHPAFRMDDSYCLSALRSPFYPIPTPGSLPPLHPSAMHLHLSGVRYPPELSHSSLAALHSERMSGLSAERLQMDEELRREREREREREREREADREREKEREREREKEREQEKEREREKERERELERQREQRAREKELLAAKALEPSFLPVAELHGLRGHATEERGKPSEQLTPTRAEKLKDAGLQAPKPVQHPLHPVPTPHHTVPSLISNHGIFSLPSSSAATALLIQRTNEEEKWLARQRRLRQEKEDRQSQVSEFRQQVLEQHLDMGRPPVPAEAEHRPESTTRPGPNRHEPGGRDPPQHFGGPPPLISPKPQLHAAPTALWNPVSLMDNTLETRRAESHSLHSHPAAFEPSRQAAVPLVKVERVFCPEKAEEGPRKREPAPLDKYQPPPPPPREGGSLEHQPFLPGPGPFLAELEKSTQTILGQQRASLPQAATFGELSGPLKPGSPYRPPVPRAPDPAYIYDEFLQQRRRLVSKLDLEERRRREAQEKGYYYDLDDSYDESDEEEVRAHLRCVAEQPPLKLDTSSEKLEFLQLFGLTTQQQKEELVAQKRRKRRRMLRERSPSPPTIQSKRQTPSPRLALSTRYSPDEMNNSPNFEEKKKFLTIFNLTHISAEKRKDKERLVEMLRAMKQKALSAAVADSLTNSPRDSPAVSLSEPATQQASLDVEKPVGVAASLSDIPKAAEPGKLEQVRPQELSRVQELAPASGEKARLSEAPGGKKSLSMLHYIRGAAPKDIPVPLSHSTNGKSKPWEPFVAEEFAHQFHESVLQSTQKALQKHKGSVAVLSAEQNHKVDTSVHYNIPELQSSSRAPPPQHNGQQEPPTARKGPPTQELDRDSEEEEEEDDEDGEDEEEVPKRKWQGIEAVFEAYQEHIEEQNLERQVLQTQCRRLEARHYSLSLTAEQLSHSVAELRSQKQKMVSERERLQAELDHLRKCLALPAMHWPRGYLKGYPR
# partner: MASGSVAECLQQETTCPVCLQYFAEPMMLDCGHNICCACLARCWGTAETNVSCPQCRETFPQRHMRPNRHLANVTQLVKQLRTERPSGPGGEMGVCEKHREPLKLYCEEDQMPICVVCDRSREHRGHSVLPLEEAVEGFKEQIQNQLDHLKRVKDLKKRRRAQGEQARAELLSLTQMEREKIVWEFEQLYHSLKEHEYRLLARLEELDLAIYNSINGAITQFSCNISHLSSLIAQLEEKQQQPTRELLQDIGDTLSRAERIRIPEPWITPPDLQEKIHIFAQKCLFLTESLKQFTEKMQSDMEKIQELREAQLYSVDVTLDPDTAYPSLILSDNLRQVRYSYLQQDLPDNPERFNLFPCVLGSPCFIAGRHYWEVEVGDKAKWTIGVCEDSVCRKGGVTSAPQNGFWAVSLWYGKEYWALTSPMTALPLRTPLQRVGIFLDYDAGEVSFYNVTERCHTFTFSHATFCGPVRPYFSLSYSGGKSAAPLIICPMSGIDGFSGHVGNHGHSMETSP
# Variants of: B1
# Conditions: with ck054_human C11orf54, Q9H0W9
row,Variant,effect of a mutation on the interaction
1,A127S,with no effect

# Variants of: B2
# Conditions: with KRT40, Q6A162
row,Variant,effect of a mutation on the interaction
1,R346W,with no effect

# Variants of: B3
# Conditions: with fhl2_human FHL2, Q14192
row,Variant,effect of a mutation on the interaction
1,D227E,with no effect

# Variants of: B4
# Conditions: with trim1_human MID2, Q9UJV3
row,Variant,effect of a mutation on the interaction
1,R212H,disrupting interaction strength

# Variants of: B5
# Conditions: with tri27_human TRIM27, P14373
row,Variant,effect of a mutation on the interaction
1,E368K,with no effect
